Measurements from patent US10464987B2.

What was measured:
[1] = target: SIY peptide on H-2Kb (mouse); experiment: value stated for 2C in the legend of FIG. 16, no measurement described; given for scTv and full-length constructs alike
[2] = target: SIY peptide on H-2Kb (mouse); experiment: value cited from Chervin et al. 2009 (ref 18); not measured in this filing
[3] = target: SIY peptide on H-2Kb (mouse); experiment: value stated for m33 in the legend of FIG. 16, no measurement described; given for scTv and full-length constructs alike

Row | Substance | Kd [1] [nM] | Kd [2] [nM] | Kd [3] [nM]
1 | 2C full-length TCR | 30000 | – | –
2 | m33 full-length TCR | – | 16 | 30
